Measurements reported in patent US20250304677A1 (VIB VZW, published 2025).

Tests used:
[1] = target: T1, mouse folate receptor alpha (mFRα), recombinant protein (mouse, UniProt P35846 25-232); assay: BLI, VHH captured by anti-FLAG antibody on mouse Fc biosensors
T1 construct: Bought recombinant proteins (e.g. biotinylated, Acro Biosystems FO1-M82E9); also called mFOLR1; Ms FOLR1
Outline: (§1)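 Biolayer interferometry was used to measure binding of VHHs to human, mouse and rhesus monkey folate receptor alpha. Each VHH was first captured on mouse Fc biosensors with an anti-FLAG tag antibody. A 1:1 binding model was applied to derive kon, koff and the equilibrium dissociation constant (KD).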

[2] = target: T2, human folate receptor alpha (hFRα), recombinant protein (human, UniProt P15328 25-233); assay: as above
T2 construct: Bought recombinant proteins (His-tagged, or biotinylated via Avi-tag, e.g. AcroBiosystems FO1-H82E2, F01-H52H1); also called hFOLR1; huFOLR1
Outline: as §1

[3] = target: T3, rhesus monkey folate receptor alpha, recombinant (rhesus monkey, UniProt F7BP60 25-233); assay: as above
T3 construct: also called rhFolR1; rhesus macaque FRα
Outline: as §1

[4] = target: T1, mouse folate receptor alpha (mFRα), …; assay: BLI, purified VHH
Outline: (§2)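 VHH proteins carrying a flag3-His6 tag were expressed in TG-1 E. coli at 0.5 L scale. Each was purified from the periplasmic fraction on Ni Sepharose FastFlow columns, then desalted, and its purity was checked by SDS-PAGE. Biolayer interferometry was used to measure off-rates to human, mouse and cynomolgus folate receptor alpha.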

[5] = target: T2, human folate receptor alpha (hFRα), …; assay: BLI, purified VHH
Outline: as §2

[6] = target: T4, cynomolgus folate receptor alpha, recombinant (cynomolgus, UniProt A0A2K5U044 25-233); assay: BLI, purified VHH
T4 construct: also called cyFOLR1; cynomolgus FRα
Outline: as §2

[7] = target: T5, human folate receptor alpha expressed on cells (transfected HEK293T, HeLa, MCF7, MDA-MB-231) (human, UniProt P15328 25-234); assay: flow cytometry on HeLa cells, anti-Flag detection
T5 construct: HEK293T transiently transfected with human FOLR1; also called native human FRα; cell-expressed human FOLR1
Protocol: EC₅₀ values are found in Table 9. Detection of VHH cell binding was done through anti-Flag M2 mIgG1 followed by anti-mFc-PE in flow cytometry. Results are depicted as mean fluorescence intensity ^{∘}MFI).
Off-rates of purified variants were determined to human, mouse, and cynomolgus FRα in BLI. In addition, binding of the affinity optimised variants to cell-expressed human FRα on HeLa cells was determined by flow cytometry ^{∘}FIG. 10 B).

[8] = target: T1, mouse folate receptor alpha (mFRα), …; assay: BLI, Avi-biotinylated FRα on streptavidin biosensors, VHH 100 nM
Protocol: (§3) The binding of humanized variants of 2HFO42 was assessed by kinetic binding analysis to mouse and human FRα protein, biotinylated via an Avi-tag, captured on streptavidin biosensors by biolayer interferometry ^{∘}BLI), essentially as described earlier. VHHs were analysed at 100 nM concentration, and off-rates were determined using fitting of 1:1 langmurian interaction. Dissociation constants were compared to 2HFO42^{∘}Q1E, Q5V, Q108L) ^{∘}P101500004) and 2MFR67 ^{∘}Q1E, Q5V, Q108L) ^{∘}P0150000), respectively.

[9] = target: T2, human folate receptor alpha (hFRα), …; assay: as above
Protocol: as §3

[10] = target: T1, mouse folate receptor alpha (mFRα), …; assay: BLI tandem binning on mouse FRα; competitor (1st association) 2MFR32
Description: (§4) VHHs that share high sequence identity in the CDR3 region, a VHH family, are derived from the same B-cell lineage and diverged from each other due to somatic hypermutation or affinity maturation. Typically, VHHs from the same family recognize the same epitope on the target, but may differ in other characteristics ^{∘}De Genst et al 2006 PNAS 103:4586-4591; De Gents et al 2005 J Biol Chem 280:14114-14121). To study whether the VHHs from the different families bound different epitopes, epitope binning was performed using a tandem binding approach in BLI. One VHH from each family was allowed to bind to mouse FRα on the biosensor, followed by binding of the second VHH ^{∘}Table 4).
(§5) Competition between VHHs from different complementarity determining region ^{∘}CDR) 3 families was assessed in a tandem binding assay using biolayer interferometry ^{∘}BLI). Streptavidin biosensors were loaded with biotinylated mouse FRα ^{∘}Acro Biosystems, Cat.nr. FO1-M82E9), followed by binding of anti-FRα VHHs ^{∘}VHH in first association). The biosensors were then transferred to a solution containing a second VHH mixed 1:1 with the first VHH ^{∘}VHH in second association). Using the FortéBio Data Analysis Software the absolute additional binding signal for the second association on top of the first association was calculated. The data were normalized per VHH in first association using the following formula: ^{∘}signal-self)/^{∘}maximum-self) with self being the value of the VHH in first association in combination with the same VHH in second association.

[11] = target: T1, mouse folate receptor alpha (mFRα), …; assay: BLI tandem binning on mouse FRα; competitor (1st association) 2HFO42
Description: as §4, §5

[12] = target: T1, mouse folate receptor alpha (mFRα), …; assay: BLI tandem binning on mouse FRα; competitor (1st association) 2HFO19
Description: as §4, §5

[13] = target: T1, mouse folate receptor alpha (mFRα), …; assay: BLI tandem binning on mouse FRα; competitor (1st association) 3MFR60
Description: as §4, §5

T3 sequence (F7BP60 entry or part of it): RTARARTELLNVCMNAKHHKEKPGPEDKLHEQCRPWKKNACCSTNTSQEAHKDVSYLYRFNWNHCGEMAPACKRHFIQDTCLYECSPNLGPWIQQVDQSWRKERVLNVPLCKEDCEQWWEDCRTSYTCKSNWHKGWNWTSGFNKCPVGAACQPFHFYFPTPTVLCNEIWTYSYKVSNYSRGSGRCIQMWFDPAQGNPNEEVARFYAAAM
T1 sequence (P35846 25-232 limits assumed): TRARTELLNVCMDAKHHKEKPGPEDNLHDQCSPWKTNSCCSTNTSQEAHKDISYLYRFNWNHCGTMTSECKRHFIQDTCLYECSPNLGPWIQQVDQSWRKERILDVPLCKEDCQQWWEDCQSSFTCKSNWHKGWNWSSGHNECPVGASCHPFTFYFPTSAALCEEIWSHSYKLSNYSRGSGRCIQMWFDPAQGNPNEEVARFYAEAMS
T2 sequence (P15328 25-233 limits assumed): as the sequence (F7BP60 entry or part of it) above, with T2I, R4W, K37R, P146A, Y171H counted along it
T5 sequence (P15328 25-234 limits assumed): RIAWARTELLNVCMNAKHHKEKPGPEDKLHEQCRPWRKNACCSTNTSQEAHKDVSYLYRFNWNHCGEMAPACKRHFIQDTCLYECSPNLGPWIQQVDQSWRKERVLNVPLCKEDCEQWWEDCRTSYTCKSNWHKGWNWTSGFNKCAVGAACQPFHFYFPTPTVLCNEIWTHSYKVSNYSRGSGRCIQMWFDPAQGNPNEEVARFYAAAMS
T4 sequence (A0A2K5U044 entry or part of it): as the sequence (F7BP60 entry or part of it) above

Binder	Kd [1]	koff [1]	kon [1]	Kd [2]	koff [2]	kon [2]	Kd [3]	koff [3]	kon [3]	koff [4]	koff [5]	koff [6]	EC50 [7]	MFI top [7]	koff [8]	koff [9]	normalized additional binding in 2nd association [10]	normalized additional binding in 2nd association [11]	normalized additional binding in 2nd association [12]	normalized additional binding in 2nd association [13]
P01500008: 2MFR67(Q1E, Q5V, Q108L)-FLAG3-HIS6 (VHH, Entry includes the tags; also called 2MFR67-Flag3-His6) VHH: EVQLVESGGGLVQAGGSLRLSCAASGSGFSGMIMGWYRQAPGKQRELVATVTSHGTTNYADSVKGRFTISREDSKNTVLLQMNSLKPEDTAVYYCNAHFPGIYWGKGTLVTVSS	2.52 nM	0.000571 s⁻¹	227000 M⁻¹ s⁻¹	8.78 nM	0.0031 s⁻¹	353000 M⁻¹ s⁻¹	13.8 nM	0.00434 s⁻¹	315000 M⁻¹ s⁻¹	0.000447 s⁻¹	0.00282 s⁻¹	0.000454 s⁻¹	5.6 nM	54900 MFI	0.00042 s⁻¹	0.00304 s⁻¹				
VHH 2MFR32 (VHH, also called 2MF832) VHH: QVQLQESGGGLVQAGGSLRVSCAASGFPFSTVYMSWVRQAPGKGLEWVSGINSNGGVIDYADSVKGRFTISRDNANNTLYLQLNSLKPEDTALYFCAKGRAFVATMPSSLRGQGTQVTVSS																	0%	100%	100%	100%
